This is an account of results in the supplement of paper PMC10567573.

To fix the notation:
B1: HDAC6 (parent)
chain: YVHHQALLDVKNIAHQNKFGEDMP
B2: MMP1 (parent)
chain: YTPDLPRADVDHAIEKAFQLWSNV
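Further: lentivirally expressed fusions sorted by FACS into six bins by GFP to DsRed ratio, PSI derived from sequencing read proportions per bin multiplied by bin number.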

Variants of B1 are the subject of one series. Kind of series: protein stability index of a GFP-peptide fusion (GPS, HEK-293T) (PSI 1-6); higher = more stable. The following applies: c terminus: a fixed tail appended.
Consider YVHHQALLDVKNIAHQNKFGEDMW [P24W], for which the protein stability index came to 2.05. On to YVHHQALLDVKNIAHQNKFGEDMY [P24Y], for which the protein stability index came out at 1.51. As to YVHHQALLDVKNIAHQNKFGEDMS [P24S], the protein stability index was 2.25.

For YVHHQALLDVKNIAHQNKFGEDMD [P24D], the protein stability index was found to be 1.96.

Take YVHHQALLDVKNIAHQNKFGEDME [P24E]: the protein stability index turned out to be 1.77. Regarding YVHHQALLDVKNIAHQNKFGEDMT [P24T], the protein stability index was determined as 2.17. The same measure, in the same setting: with YVHHQALLDVKNIAHQNKFGEDMI [P24I] the figure was 2.06; with YVHHQALLDVKNIAHQNKFGEDMG [P24G], 2.36. Turning to YVHHQALLDVKNIAHQNKFGEDMA [P24A], the protein stability index stood at 1.46.

With YVHHQALLDVKNIAHQNKFGEDMH [P24H], the protein stability index worked out at 1.58.

With YVHHQALLDVKNIAHQNKFGEDMK [P24K], the protein stability index amounted to 2.25. As to YVHHQALLDVKNIAHQNKFGEDMF [P24F], the protein stability index was 1.49. With YVHHQALLDVKNIAHQNKFGEDMQ [P24Q], the protein stability index came out at 1.91. Regarding YVHHQALLDVKNIAHQNKFGEDMN [P24N], the protein stability index worked out at 2.19. The same measure, in the same setting: with YVHHQALLDVKNIAHQNKFGEDMR [P24R] the figure was 1.56; with YVHHQALLDVKNIAHQNKFGEDMV [P24V], 1.57. With YVHHQALLDVKNIAHQNKFGEDML [P24L], the protein stability index was found to be 2.23. Take YVHHQALLDVKNIAHQNKFGEDMM [P24M]: the protein stability index was found to be 1.96.

As to YVHHQALLDVKNIAHQNKFGEDMC [P24C], the protein stability index turned out to be 1.98.

With YVHHQALLDVKNIAHQNKFGEDRP [M23R], the protein stability index amounted to 1.97. Consider YVHHQALLDVKNIAHQNKFGEDIP [M23I], for which the protein stability index came out at 2.39. Consider YVHHQALLDVKNIAHQNKFGEDTP [M23T], for which the protein stability index was 2.63. On to YVHHQALLDVKNIAHQNKFGEDVP [M23V], for which the protein stability index was found to be 1.74. Same read-out and setting: for YVHHQALLDVKNIAHQNKFGEDYP [M23Y] the value was 2.14.

Take YVHHQALLDVKNIAHQNKFGEDGP [M23G]: the protein stability index was 2.03. For YVHHQALLDVKNIAHQNKFGEDNP [M23N], the protein stability index amounted to 1.88. On the same count and under the same terms, for YVHHQALLDVKNIAHQNKFGEDSP [M23S] the value was 2.13; for YVHHQALLDVKNIAHQNKFGEDHP [M23H], 1.93. In the case of YVHHQALLDVKNIAHQNKFGEDPP [M23P], the protein stability index worked out at 2.18. The same measure, in the same setting: for YVHHQALLDVKNIAHQNKFGEDKP [M23K] the value was 2.26.

In the case of YVHHQALLDVKNIAHQNKFGEDQP [M23Q], the protein stability index is 1.68. For the variant YVHHQALLDVKNIAHQNKFGEDLP [M23L], the protein stability index came out at 1.97.

As for YVHHQALLDVKNIAHQNKFGEDWP [M23W], the protein stability index is 1.49.

The variants in the next series derive from B2. The description is as above. The following applies: c terminus: a fixed tail appended.
Take YTEDLPRADVDHAIEKAFQLWSNV [P3E]: the protein stability index stood at 2.66.

On to YTIDLPRADVDHAIEKAFQLWSNV [P3I], for which the protein stability index was 1.92. For the variant YTDDLPRADVDHAIEKAFQLWSNV [P3D], the protein stability index stood at 3.37. Consider YTVDLPRADVDHAIEKAFQLWSNV [P3V], for which the protein stability index was 2.13. As to YTWDLPRADVDHAIEKAFQLWSNV [P3W], the protein stability index stood at 2.87. For the variant YTMDLPRADVDHAIEKAFQLWSNV [P3M], the protein stability index turned out to be 1.88. In the case of YTKDLPRADVDHAIEKAFQLWSNV [P3K], the protein stability index stood at 2.01. On the same count and under the same terms, with YTTDLPRADVDHAIEKAFQLWSNV [P3T] the figure was 1.84; with YTQDLPRADVDHAIEKAFQLWSNV [P3Q], 2.96; with YTADLPRADVDHAIEKAFQLWSNV [P3A], 1.79.

As to YTFDLPRADVDHAIEKAFQLWSNV [P3F], the protein stability index worked out at 2.3. Take YTLDLPRADVDHAIEKAFQLWSNV [P3L]: the protein stability index stood at 1.62. YTSDLPRADVDHAIEKAFQLWSNV [P3S]: the protein stability index was determined as 2.36. In the case of YTYDLPRADVDHAIEKAFQLWSNV [P3Y], the protein stability index was found to be 1.8. As to YTRDLPRADVDHAIEKAFQLWSNV [P3R], the protein stability index turned out to be 2.49. On the same count and under the same terms, for YTNDLPRADVDHAIEKAFQLWSNV [P3N] the value was 2.5. The same measure, in the same setting: for YTHDLPRADVDHAIEKAFQLWSNV [P3H] the value was 1.79; for YTGDLPRADVDHAIEKAFQLWSNV [P3G], 1.62. For YTCDLPRADVDHAIEKAFQLWSNV [P3C], the protein stability index is 1.54. On the same count and under the same terms, with HTPDLPRADVDHAIEKAFQLWSNV [Y1H] the figure was 3.43. Still for that read-out and setting: with DTPDLPRADVDHAIEKAFQLWSNV [Y1D] the figure was 3.57; with GTPDLPRADVDHAIEKAFQLWSNV [Y1G], 2.97.

Turning to LTPDLPRADVDHAIEKAFQLWSNV [Y1L], the protein stability index was determined as 2.87. Consider VTPDLPRADVDHAIEKAFQLWSNV [Y1V], for which the protein stability index turned out to be 3.19. ETPDLPRADVDHAIEKAFQLWSNV [Y1E]: the protein stability index amounted to 3.53. Still for that read-out and setting: with WTPDLPRADVDHAIEKAFQLWSNV [Y1W] the figure was 2.32.

Regarding NTPDLPRADVDHAIEKAFQLWSNV [Y1N], the protein stability index came to 3.18. On the same count and under the same terms, with QTPDLPRADVDHAIEKAFQLWSNV [Y1Q] the figure was 3.08; with KTPDLPRADVDHAIEKAFQLWSNV [Y1K], 3.32. Take TTPDLPRADVDHAIEKAFQLWSNV [Y1T]: the protein stability index was 2.92. For ATPDLPRADVDHAIEKAFQLWSNV [Y1A], the protein stability index turned out to be 4.18. Turning to PTPDLPRADVDHAIEKAFQLWSNV [Y1P], the protein stability index came to 3.47. In the case of ITPDLPRADVDHAIEKAFQLWSNV [Y1I], the protein stability index amounted to 2.64.

In the case of CTPDLPRADVDHAIEKAFQLWSNV [Y1C], the protein stability index amounted to 2.33. Regarding FTPDLPRADVDHAIEKAFQLWSNV [Y1F], the protein stability index came to 2.48. Same read-out and setting: with STPDLPRADVDHAIEKAFQLWSNV [Y1S] the figure was 3.52; with MTPDLPRADVDHAIEKAFQLWSNV [Y1M], 3.16. Take RTPDLPRADVDHAIEKAFQLWSNV [Y1R]: the protein stability index turned out to be 2.97. Take YKPDLPRADVDHAIEKAFQLWSNV [T2K]: the protein stability index is 2.56. The same measure, in the same setting: for YVPDLPRADVDHAIEKAFQLWSNV [T2V] the value was 1.95; for YGPDLPRADVDHAIEKAFQLWSNV [T2G], 2.4; for YLPDLPRADVDHAIEKAFQLWSNV [T2L], 1.83. Turning to YYPDLPRADVDHAIEKAFQLWSNV [T2Y], the protein stability index turned out to be 2.45. Same read-out and setting: with YPPDLPRADVDHAIEKAFQLWSNV [T2P] the figure was 2.17; with YMPDLPRADVDHAIEKAFQLWSNV [T2M], 2.35; with YEPDLPRADVDHAIEKAFQLWSNV [T2E], 3.6. Same read-out and setting: with YCPDLPRADVDHAIEKAFQLWSNV [T2C] the figure was 1.93.

Consider YSPDLPRADVDHAIEKAFQLWSNV [T2S], for which the protein stability index was determined as 1.95. YDPDLPRADVDHAIEKAFQLWSNV [T2D]: the protein stability index was found to be 3.08. Turning to YWPDLPRADVDHAIEKAFQLWSNV [T2W], the protein stability index came to 2.16. YNPDLPRADVDHAIEKAFQLWSNV [T2N]: the protein stability index is 2.18. In the case of YFPDLPRADVDHAIEKAFQLWSNV [T2F], the protein stability index was 2.17. For YHPDLPRADVDHAIEKAFQLWSNV [T2H], the protein stability index worked out at 2.11. Still for that read-out and setting: with YAPDLPRADVDHAIEKAFQLWSNV [T2A] the figure was 2.4; with YQPDLPRADVDHAIEKAFQLWSNV [T2Q], 1.74; with YIPDLPRADVDHAIEKAFQLWSNV [T2I], 2.52.

YRPDLPRADVDHAIEKAFQLWSNV [T2R]: the protein stability index is 2.31. In the case of YTPCLPRADVDHAIEKAFQLWSNV [D4C], the protein stability index came to 1.69. Same read-out and setting: with YTPFLPRADVDHAIEKAFQLWSNV [D4F] the figure was 2.54; with YTPALPRADVDHAIEKAFQLWSNV [D4A], 1.75. For the variant YTPELPRADVDHAIEKAFQLWSNV [D4E], the protein stability index was found to be 1.4.
